The series deals with the molecule itself. Description: crystal structure; DNMT3A(628-912, WT or R882H)-DNMT3L(178-386) tetramer covalently bound to 25-mer zebularine DNA duplex (CGA, CGT or CAG) and SAH; crystals at 4 °C from 0.1 M sodium citrate pH 4.2 or 4.4, PEG8000.

The source of these data is PMC7210271, “Structural basis for impairment of DNA methylation by the DNMT3A R882H mutation” (Nature Communications, 2020).

B1: DNMT3A R882H mutant, MTase (C-terminal) domain, residues 628-912 (domain or fragment, UniProt Q9Y6K1 628-912, looked up)
chain: AEKRKPIRVLSLFDGIATGLLVLKDLGIQVDRYIASEVCEDSITVGMVRHQGKIMYVGDVRSVTQKHIQEWGPFDLVIGGSPCNDLSIVNPARKGLYEGTGRLFFEFYRLLHDARPKEGDDRPFFWLFENVVAMGVSDKRDISRFLESNPVMIDAKEVSAAHRARYFWGNLPGMNRPLASTVNDKLELQECLEHGRIAKFSKVRTITTRSNSIKQGKDQHFPVFMNEKEDILWCTEMERVFGFPVHYTDVSNMSHLARQRLLGRSWSVPVIRHLFAPLKEYFACV
modifications: catalytic cysteine C710 covalently linked to zebularine of the DNA (in the crystallised complexes)
notes: DNMT3A, MTase domain (C-terminal domain), residues 628-912, with the AML hotspot mutation R882H; R882H is a mutation found in acute myeloid leukemia patients; it was removed by ULP1; also called R882H-mutated DNMT3A; R882H DNMT3A; source: E. coli BL21 DE3 (RIL), co-expressed with DNMT3L, purified (Ni-NTA, Heparin, SEC); not shown: His6-SUMO, N-terminal, cleaved
As to B1, the binding result was “binds”.
